Source: patent US10441607B1, “Multifunctional linker technology containing an N4 group” (priority 2016, dated 2019)

What was measured:
AR42J xenografts = experiment: Biodistribution in AR42J xenografts; type: in vivo, mice
[1] = Biodistribution in AR42J xenografts; type: in vivo, mice; details: mouse, all tissues other than tumor and kidneys, read-out: uptake in all locations other than tumor and kidneys
AR42J tumor = experiment: PET/CT imaging of AR42J tumor-bearing mice; type: in vivo
Description: PET/CT images (FIG. 6) were taken of AR42J tumor-bearing mice administered ^68Ga-DOTA-TOC (left) and ^68Ga-MMC(5-FU)-TOC (right).

[2] = system: SSTR2-expressing IMR-32 cells; experiment: Cellular uptake / receptor-mediated binding and octreotide blocking in IMR-32 cells; type: cell-based
Description: The cellular uptake of compound 7 was compared to another dual-labeled TOC agent, ^64Cu-DA(NIR)-TOC, which was synthesized by sequential N-terminal functionalization of resin-bound TOC with an azide-containing amino acid and DOTA-NHS, in IMR-32 neuroblastoma cells. Agents (30 nM, 1-2 μCi) were added to vials containing 4 million cells and incubated at 4° C. for 1 hr. […] After washing twice with PBS, the cells were collected and bound radioactivity was measured by a γ counter.

For `C[C@@H](O)[C@@H]1NC(=O)[C@H](CCCCN)NC(=O)[C@@H](Cc2c[nH]c3ccccc23)NC(=O)[C@H](Cc2ccc(O)cc2)NC(=O)[C@@H](NC(=O)[C@@H](Cc2ccccc2)NC(=O)CN2CCN(CC(=O)O)CCN(C(=O)Cn3cc(F)c(=O)[nH]c3=O)CCN(CC(=O)O)CC2)CSSC[C@@H](C(=O)N[C@H](CO)[C@@H](C)O)NC1=O` [^68Ga-MMC(5-FU)-TOC, metal not drawn], which “location of the majority of the injected dose” value (AR42J xenografts) is on record?
Its value is “either the tumor or kidneys”.

What about the tissue uptake [1] of the same compound?
The tissue uptake was < 5 %ID/g.

And the “localization in PET/CT images” value (AR42J tumor)?
The value was “primarily in the tumor, the kidneys, and the bladder”.

And the “binding to IMR-32 cells” value [2]?
Its value is “good binding”.

What about the “reduction in binding on blocking with octreotide” value ([2]; 10-fold excess of octreotide) of the same compound?
The value was 81.2%.

And the “reduction in binding on blocking with octreotide” value ([2]; 200-fold excess of octreotide)?
Its value is 94.9%.
